Numbered stars: 1 amine (or outer) side, 2 acyl side, 3 side chain; on linkers, the order of the positions; unused ones are H or OH. Bridge positions count the residues as written; N and C are the ends. Square brackets hold non-standard residues; d marks the D form. Primed or numbered codes have the meaning given here. * marks the point of attachment. RbOHPhe4CONH2 = (2S,3R)-2-amino-3-(4-carbamoylphenyl)-3-hydroxypropanoic acid, NC(=O)c1ccc([C@@H](O[*:3])[C@H](N[*:1])C(=O)[*:2])cc1; bhcLeu = (1R,3S)-3-aminocyclopentane-1-carboxylic acid, O=C([C@@H]1CC[C@H](N[*:1])C1)[*:2]; Trp(βS-Me,7-OMe) = COc1cccc2c([C@H](C)[C@H](N)C(=O)O)c[nH]c12; Phe(2-F,4-COOH) = N[C@@H](Cc1ccc(C(=O)O)cc1F)C(=O)O; dPro(trans-4-NMe2) = CN(C)[C@@H]1CN[C@@H](C(=O)O)C1; Trp(7-CN) = N#Cc1cccc2c(C[C@H](N)C(=O)O)c[nH]c12; Trp(7-Cl) = N[C@@H](Cc1c[nH]c2c(Cl)cccc12)C(=O)O; Biotin = O=C1N[C@H]2[C@H](CS[C@H]2CCCCC(=O)*)N1; Phe(4-CONH2) = NC(=O)c1ccc(C[C@H](N)C(=O)O)cc1; Phe(4-COOH) = N[C@@H](Cc1ccc(C(=O)O)cc1)C(=O)O; Trp(7-aza) = N[C@@H](Cc1c[nH]c2ncccc12)C(=O)O; Pip(4-aza) = O=C(O)[C@@H]1CNCCN1; 4Pal = N[C@@H](Cc1ccncc1)C(=O)O; NMeE = CN[C@@H](CCC(=O)O)C(=O)O; dHyp = O=C(O)[C@H]1C[C@H](O)CN1; d(αMeP) = C[C@]1(C(=O)O)CCCN1; 40Me3Pal = not defined here; Pipt5OH = not defined here; αMeS = C[C@](N)(CO)C(=O)O; Nle = CCCC[C@H](N)C(=O)O; Pip2c = not defined here; cAcBu = not defined here; Ahp′ = not defined here; MO2 = not defined here; Qdm = not defined here; AEA = NCCOCC(=O)O; Sar = CNCC(=O)O
B1: SEQ ID NO. 7 (peptide)
peptide: cyclo([bhcLeu][Nle][4Pal][Pip2c]W[NMeE]N[4Pal][Trp(7-Cl)][αMeS][Phe(2-F,4-COOH)]Y[Sar][Trp(βS-Me,7-OMe)])
modifications: reading uncertain; also: printed as cyclo(bhcLeu-Nle-4Pal-Pip2c-W-NMeE-N-4Pal-Trp7Cl-aMeS-Phe2F4COOH-Y-Sar-SbMeW7OMe)
B2: SEQ ID NO. 88 (peptide)
peptide: cyclo([bhcLeu][Nle][4Pal][Pipt5OH]W[dHyp]N[AlaPyrim4COOH][Trp(7-Cl)][αMeS][Phe(4-CONH2)][Phe(4-COOH)][Sar][Trp(βS-Me,7-OMe)])
modifications: reading uncertain; also: printed as cyclo(bhcLeu-Nle-4Pal-Pipt5OH-W-dProt4OH-N-AlaPyrim4COOH-Trp7Cl-aMeS-Phe4CONH2-Phe4COOH-Sar-SbMeW7OMe)
B3: SEQ ID NO. 98 (peptide)
peptide: cyclo([bhcLeu][Ahp′][SbMe4Pal]HW[dHyp]N[Phe(4-COOH)][Trp(7-CN)][αMeS][Phe(4-CONH2)][Phe(4-CONH2)][Sar][Trp(βS-Me,7-OMe)])
modifications: reading uncertain; also: printed as cyclo(bhcLeu-Ahp-SbMe4Pal-H-W-dProt4OH-N-Phe4COOH-Trp7CN-aMeS-Phe4CONH2-Phe4CONH2-Sar-SbMeW7OMe)
B4: SEQ ID NO. 75 (peptide)
peptide: {CH2CO}-[Nle][4Pal][Pip2c]W[NMeE][Qdm][4Pal][Trp(7-Cl)][αMeS][Phe(4-COOH)]Y[Sar][Trp(βS-Me,7-OMe)]C-NH2
modifications: thioether N-14 (inferred); reading uncertain; also: printed as cyclo(ClAc-Nle-4Pal-Pip2c-W-NMeE-Qdm-4Pal-Trp7Cl-aMeS-Phe4COOH-Y-Sar-SbMeW7OMe-C)-NH2
B5: biotinylated peptide SEQ ID NO. 1 (TR-FRET probe): cyclo(ClAc-F-Y-S-W-Sar-N-Y-W-S-Y-Y-Sar-W-C)-G-Aea-K(N-Biotin)-NH2 (peptide)
peptide: {CH2CO}-FYSW[Sar]NYWSYY[Sar]WCG[AEA]K(Biotin)-NH2
modifications: thioether N-14
SMILES: CN1CC(=O)N[C@@H](CC(N)=O)C(=O)N[C@@H](Cc2ccc(O)cc2)C(=O)N[C@@H](Cc2c[nH]c3ccccc23)C(=O)N[C@@H](CO)C(=O)N[C@@H](Cc2ccc(O)cc2)C(=O)N[C@@H](Cc2ccc(O)cc2)C(=O)N(C)CC(=O)N[C@@H](Cc2c[nH]c3ccccc23)C(=O)N[C@H](C(=O)NCC(=O)NCCOCC(=O)N[C@@H](CCCCNC(=O)CCCC[C@@H]2SC[C@@H]3NC(=O)N[C@@H]32)C(N)=O)CSCC(=O)N[C@@H](Cc2ccccc2)C(=O)N[C@@H](Cc2ccc(O)cc2)C(=O)N[C@@H](CO)C(=O)N[C@@H](Cc2c[nH]c3ccccc23)C1=O
notes: Synthetic thioether macrocycle made by Procedure A, with a Gly-Aea spacer and Lys(biotin) on the carboxy group of the C-terminal cysteine; also called biotin-tagged B0372 peptide
B6: SEQ ID NO. 287 (Example No. 287) macrocyclic peptide (peptide)
peptide: cyclo([bhcLeu][Nle][4Pal][Pip(4-aza)][Trp(7-aza)][dPro(trans-4-NMe2)]N[Phe(4-COOH)][Trp(7-CN)][αMeS][Phe(4-COOH)][RbOHPhe4CONH2][Sar][Trp(βS-Me,7-OMe)])
SMILES: CCCC[C@@H]1NC(=O)[C@@H]2CC[C@@H](C2)NC(=O)[C@H]([C@@H](C)c2c[nH]c3c(OC)cccc23)NC(=O)CN(C)C(=O)[C@H]([C@H](O)c2ccc(C(N)=O)cc2)NC(=O)[C@H](Cc2ccc(C(=O)O)cc2)NC(=O)[C@](C)(CO)NC(=O)[C@H](Cc2c[nH]c3c(C#N)cccc23)NC(=O)[C@H](Cc2ccc(C(=O)O)cc2)NC(=O)[C@H](CC(N)=O)NC(=O)[C@H]2C[C@H](N(C)C)CN2C(=O)[C@H](Cc2c[nH]c3ncccc23)NC(=O)[C@@H]2CNCCN2C(=O)[C@H](Cc2ccncc2)NC1=O
B7: SEQ ID NO. 100 (peptide)
peptide: cyclo([bhcLeu][Nle][4Pal][Pip2c]W[NMeE]N[40Me3Pal][Trp(7-Cl)][αMeS][Phe(4-COOH)]Y[Sar][Trp(βS-Me,7-OMe)])
modifications: reading uncertain; also: printed as cyclo(bhcLeu-Nle-4Pal-Pip2c-W-NMeE-N-40Me3Pal-Trp7Cl-aMeS-Phe4COOH-Y-Sar-SbMeW7OMe)
B8: SEQ ID NO. 65 (peptide)
peptide: {CH2CO}-[Nle][PyrimAla][Pip2c][Trp(7-aza)][NMeE]N[4Pal][Trp(7-Cl)][αMeS][Phe(4-COOH)]Y[Sar][Trp(βS-Me,7-OMe)]C-NH2
modifications: thioether N-14; reading uncertain; also: printed as cyclo(ClAc-Nle-PyrimAla-Pip2c-Trp7az-NMeE-N-4Pal-Trp7Cl-aMeS-Phe4COOH-Y-Sar-SbMeW7OMe-C)-NH2
B9: SEQ ID NO. 64 (peptide)
peptide: cyclo([bhcLeu][Nle][4Pal][Pip2c]W[NMeE][MO2][4Pal][Trp(7-Cl)][αMeS][Phe(4-COOH)]Y[Sar][Trp(βS-Me,7-OMe)])
modifications: reading uncertain; also: printed as cyclo(bhcLeu-Nle-4Pal-Pip2c-W-NMeE-MO2-4Pal-Trp7Cl-aMeS-Phe4COOH-Y-Sar-SbMeW7OMe)
B10: SEQ ID NO. 78 (peptide)
peptide: cyclo([bhcLeu][Nle][4Pal][Pipt5OH]W[dHyp][RbOHAsn][4Pal][Trp(7-CN)][αMeS][Phe(4-CONH2)][Phe(4-COOH)][Sar][Trp(βS-Me,7-OMe)])
modifications: reading uncertain; also: printed as cyclo(bhcLeu-Nle-4Pal-Pipt5OH-W-dProt4OH-RbOHAsn-4Pal-Trp7CN-aMeS-Phe4CONH2-Phe4COOH-Sar-SbMeW7OMe)
B11: SEQ ID NO. 76 (peptide)
peptide: {CH2CO}-[Nle][4Pal][Pip2c]W[d(αMeP)]N[4Pal][Trp(7-Cl)][αMeS][Phe(4-COOH)]Y[Sar][Trp(βS-Me,7-OMe)]C-NH2
modifications: thioether N-14 (inferred); reading uncertain; also: printed as cyclo(ClAc-Nle-4Pal-Pip2c-W-daMeP-N-4Pal-Trp7Cl-aMeS-Phe4COOH-Y-Sar-SbMeW7OMe-C)-NH2
B12: SEQ ID NO. 69 (peptide)
peptide: cyclo([cAcBu][Nle][4Pal][Pip2c]W[NMeE]N[4Pal][Trp(7-Cl)][αMeS][Phe(4-COOH)]Y[Sar][Trp(βS-Me,7-OMe)])
modifications: reading uncertain; also: printed as cyclo(cAcBu-Nle-4Pal-Pip2c-W-NMeE-N-4Pal-Trp7Cl-aMeS-Phe4COOH-Y-Sar-SbMeW7OMe)

What was measured:
[1] = molecular target: T1, TNFR1 on THP-1 Lucia NF-kB reporter cells (UniProt P19438 30-455, limits assumed); test: cell-based or functional assay
T1 sequence (looked up): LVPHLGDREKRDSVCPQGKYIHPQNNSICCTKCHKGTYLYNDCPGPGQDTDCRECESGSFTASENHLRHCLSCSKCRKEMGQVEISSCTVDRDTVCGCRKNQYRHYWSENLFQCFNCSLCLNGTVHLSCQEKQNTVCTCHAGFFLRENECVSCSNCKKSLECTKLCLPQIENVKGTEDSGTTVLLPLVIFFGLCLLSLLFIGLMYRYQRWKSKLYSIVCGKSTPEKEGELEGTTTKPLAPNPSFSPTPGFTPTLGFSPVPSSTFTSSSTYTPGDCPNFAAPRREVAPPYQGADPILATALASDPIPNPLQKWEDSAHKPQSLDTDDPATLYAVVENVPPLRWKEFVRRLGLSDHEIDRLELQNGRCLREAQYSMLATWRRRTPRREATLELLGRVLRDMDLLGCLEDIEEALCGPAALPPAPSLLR

[2] = molecular target: T2, C-terminally 6His-tagged human soluble TNFR1 (sTNFR1, residues 1-211), purified from a Sf21 baculovirus … (human); test: TR-FRET binding assay, probe peptide with sTNFR1-6His (0.25 nM)
T2 construct: ID NO; The text says 'residues 1-211'; also called sTNFR1-6His; ID NO; P1
T2 chain: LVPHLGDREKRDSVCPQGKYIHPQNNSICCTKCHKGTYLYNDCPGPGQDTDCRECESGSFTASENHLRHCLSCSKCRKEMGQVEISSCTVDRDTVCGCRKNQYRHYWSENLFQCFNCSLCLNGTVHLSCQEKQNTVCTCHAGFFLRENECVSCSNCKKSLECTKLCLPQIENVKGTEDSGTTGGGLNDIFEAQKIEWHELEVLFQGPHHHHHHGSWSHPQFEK

[3] = molecular target: T3, TNFR1 on THP-1 Lucia NF-κB reporter cells (UniProt P19438 30-455, limits assumed); test: cell-based or functional assay
T3 sequence (looked up): T1 sequence (looked up)

Binder	THP-1 IC50 [1] [nM]	other results
B1	1.6	
B2	1.9	
B3	1.5	
{CH2CO}-[Nle][4Pal][Pipc4OH]W[NMeE]N[4Pal][Trp(7-Cl)][αMeS][Phe(4-COOH)]Y[Sar][Trp(βS-Me,7-OMe)]C-NH2 (thioether N-14 (inferred)) [SEQ ID NO. 71]	2.8	
B4	6.1	
B5		Kd [2]: ~100 nM
B6		THP-1 IC50 [3]: 1.7 nM
B7	1.3	
B8	4	
B9	1.1	
B10	0.7	
B11	4.7	
B12	1.6	

From patent US20240287138A1 (Merck Sharp & Dohme, published 2024)
